According to the supplement of paper PMC10724198:
± gives the standard deviation of the averaged measurements.

Experiments:
Experiment in all cases: protein stability index of tFT-peptide fusion (C-terminal peptide) (PSI (0-1 scale)); higher = more stable (slower turnover)
[1] = test system: Saccharomyces cerevisiae; settings: temperature: 30 C
Experimental: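 MPS profiling in S. cerevisiae of the yeast C-terminome library: the last 12 aa of each annotated ORF are fused to the C-terminus of a sfGFP-mCherry timer, after a GGGS linker. Cells are FACS-sorted into 8 mCherry/sfGFP bins and deep-sequenced. PSI runs from 0 (unstable) to 1 (stable); wild type and das1Δ backgrounds, two technical replicates each.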

[2] = test system: Saccharomyces cerevisiae
Experimental: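 MPS profiling in S. cerevisiae of the tFT-X12 degron library: putative degron peptides plus stable controls, 12 aa, fused to the C-terminus of a sfGFP-mCherry timer. Cells are FACS-sorted into 8 mCherry/sfGFP bins and deep-sequenced. PSI runs from 0 (unstable) to 1 (stable). Backgrounds are wild type, das1Δ and doa10Δ at 30 °C, and wild type, das1Δ, cdc34-1 and cdc53-1 at 37 °C; 2-3 technical replicates each.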

[3] = test system: Saccharomyces cerevisiae; settings: genetic background: wild type; temperature: 30 C
[4] = genetic background: das1 deletion
[5] = genetic background: cdc34-1, temperature: 37 C
[6] = genetic background: cdc53-1, temperature: 37 C
[7] = genetic background: das1 deletion, temperature: 30 C
[8] = genetic background: das1 deletion, temperature: 37 C
[9] = genetic background: doa10 deletion, temperature: 30 C
[10] = genetic background: wild type, temperature: 30 C
[11] = genetic background: wild type, temperature: 37 C

Sequence	protein stability index [1, 4]	protein stability index ([1]; genetic background: wild type)	protein stability index [2, 5]	protein stability index [2, 6]	protein stability index [2, 7]	protein stability index [2, 8]	protein stability index [2, 9]	protein stability index [2, 10]	protein stability index [2, 11]	protein stability index [3]
ADIMEKVHKWFA [PSE1 C-terminal 12 aa]	0.68931 ± 0.00046	0.6649 ± 0.0041	–	–	–	–	–	–	–	–
ADKELSFEINVK [BRR2 C-terminal 12 aa]	0.6946 ± 0.003	0.741 ± 0.066	–	–	–	–	–	–	–	–
AFSDLSTLENAS [ATG42 C-terminal 12 aa]	0.7267 ± 0.001	0.723 ± 0.03	–	–	–	–	–	–	–	–
AFTRRRFMNKSL [ARC18 C-terminal 12 aa]	0.69 ± 0.012	0.485 ± 0.034	–	–	–	–	–	–	–	–
AGIHPDRAKLLK [NOP6 C-terminal 12 aa]	0.68 ± 0.013	0.6934 ± 0.0056	–	–	–	–	–	–	–	–
AGTENDEEEFNI [PSF2 C-terminal 12 aa]	0.674 ± 0.018	0.672 ± 0.044	–	–	–	–	–	–	–	–
AINYIGNIRRNE [ACO2 C-terminal 12 aa]	0.7288 ± 0.0043	0.727 ± 0.048	–	–	–	–	–	–	–	–
AIRTRKFDNNKR [RED1 C-terminal 12 aa]	0.716 ± 0.046	0.6648 ± 0.0027	–	–	–	–	–	–	–	–
AIWIFYIDFRVH [YCL021W-A C-terminal 12 aa]	0.227 ± 0.024	0.201 ± 0.011	–	–	–	–	–	–	–	–
AKDAFTSTLPTH [GFD2 C-terminal 12 aa]	0.7 ± 0.017	0.716 ± 0.021	–	–	–	–	–	–	–	–
AKDYLLDLAGQA [YBR085C-A C-terminal 12 aa]	0.71316 ± 0.00065	0.659 ± 0.012	–	–	–	–	–	–	–	–
AKLSEGTSFRRK [RPS27A C-terminal 12 aa]	0.6952 ± 0.0023	0.681 ± 0.037	–	–	–	–	–	–	–	–
AKNARPSKKRKF [DBP10 C-terminal 12 aa]	0.752 ± 0.025	0.6782 ± 0.0047	–	–	–	–	–	–	–	–
AKPKYEKILIDN [RTC2 C-terminal 12 aa]	0.703 ± 0.011	0.666 ± 0.035	–	–	–	–	–	–	–	–
AKRDILPSPVSV [LPP1 C-terminal 12 aa]	0.6165 ± 0.005	0.646 ± 0.04	–	–	–	–	–	–	–	–
ALKHGEKAFNIN [NEM1 C-terminal 12 aa]	0.678 ± 0.017	0.6766 ± 0.0023	–	–	–	–	–	–	–	–
ALLDGFVTAAGY [DAK2 C-terminal 12 aa]	0.745 ± 0.027	0.728 ± 0.016	–	–	–	–	–	–	–	–
AMLKPSSKEGSP [COQ10 C-terminal 12 aa]	0.6955 ± 0.0028	0.718 ± 0.0063	–	–	–	–	–	–	–	–
ANESLEEDLNLD [YBR137W C-terminal 12 aa]	0.698 ± 0.031	0.661 ± 0.025	–	–	–	–	–	–	–	–
ANKNDAISKKVE [ATG23 C-terminal 12 aa]	0.69 ± 0.017	0.763 ± 0.077	–	–	–	–	–	–	–	–
AQQNYRLWLSSV [ATG41 C-terminal 12 aa]	0.682 ± 0.016	0.3264 ± 0.0023	–	–	–	–	–	–	–	–
ARLLRFWDHIIR [SHU1 C-terminal 12 aa]	0.728 ± 0.016	0.686 ± 0.06	–	–	–	–	–	–	–	–
ARTSDELQFTLP [MPT5 C-terminal 12 aa]	0.7165 ± 0.0027	0.6868 ± 0.0057	–	–	–	–	–	–	–	–

Sequence	protein stability index [1, 4]	protein stability index ([1]; genetic background: wild type)	protein stability index [2, 5]	protein stability index [2, 6]	protein stability index [2, 7]	protein stability index [2, 8]	protein stability index [2, 9]	protein stability index [2, 10]	protein stability index [2, 11]	protein stability index [3]
ARVASQLGQKKK [PRO3 C-terminal 12 aa]	0.6735 ± 0.0064	0.684 ± 0.014	–	–	–	–	–	–	–	–
ASPTCTPQNPCV [CAB4 C-terminal 12 aa]	0.706 ± 0.021	0.735 ± 0.062	–	–	–	–	–	–	–	–
ASYIQSREICLV [GNT1 C-terminal 12 aa]	0.6464 ± 0.006	0.5859 ± 0.0036	–	–	–	–	–	–	–	–
ATGGKKTTFADE [RPA14 C-terminal 12 aa]	0.711 ± 0.054	0.667 ± 0.036	–	–	–	–	–	–	–	–
ATTDQEGDIHLE [PRE10 C-terminal 12 aa]	0.689 ± 0.026	0.678 ± 0.038	–	–	–	–	–	–	–	–
ATTNISVLQECV [VRL1 C-terminal 12 aa]	0.666 ± 0.018	0.642 ± 0.011	–	–	–	–	–	–	–	–
AWVPPTEDDSDE [DPH5 C-terminal 12 aa]	0.698 ± 0.018	0.665 ± 0.0093	–	–	–	–	–	–	–	–
VWSVSVTIVGRR	–	–	0.5289 ± 0.0013	0.573 ± 0.035	0.423 ± 0.037	0.528 ± 0.017	0.439 ± 0.032	0.455 ± 0.0093	0.507 ± 0.0052	0.458 ± 0.011
VYFASCVVLLMV	–	–	0.159 ± 0.028	0.188 ± 0.025	0.194 ± 0.029	0.3194 ± 0.0019	0.159 ± 0.0018	0.174 ± 0.017	0.251 ± 0.015	0.264 ± 0.029
VYLVVLYLRYFA	–	–	0.205 ± 0.031	0.22 ± 0.011	0.192 ± 0.038	0.359 ± 0.023	0.173 ± 0.0089	0.174 ± 0.016	0.306 ± 0.023	0.227 ± 0.037
VYVYTIRVRWSE	–	–	0.135 ± 0.024	0.274 ± 0.039	0.197 ± 0.013	0.289 ± 0.023	0.164 ± 0.021	0.184 ± 0.027	0.269 ± 0.03	0.277 ± 0.015
WAFVVCGAVFFW	–	–	0.264 ± 0.025	0.358 ± 0.031	0.299 ± 0.014	0.466 ± 0.005	0.289 ± 0.024	0.282 ± 0.036	0.412 ± 0.022	0.358 ± 0.019
WCLLGVPVRVVV	–	–	0.373 ± 0.014	0.391 ± 0.056	0.307 ± 0.042	0.462 ± 0.0047	0.253 ± 0.0041	0.288 ± 0.042	0.441 ± 0.0045	0.425 ± 0.033
WCVCVSMRMIAI	–	–	0.15 ± 0.015	0.193 ± 0.008	0.201 ± 0.011	0.175 ± 0.013	0.202 ± 0.0073	0.187 ± 0.002	0.159 ± 0.013	0.165 ± 0.0094
WFIFATFLILVT	–	–	0.0797 ± 0.0056	0.112 ± 0.0058	0.136 ± 0.032	0.2121 ± 0.001	0.154 ± 0.014	0.121 ± 0.0082	0.182 ± 0.012	0.193 ± 0.051
WFLVLLFFWFLL	–	–	0.524 ± 0.0097	0.628 ± 0.055	0.541 ± 0.0066	0.618 ± 0.028	0.55 ± 0.036	0.533 ± 0.022	0.566 ± 0.0068	0.48 ± 0.073
WFYLLFVLFGLV	–	–	0.56 ± 0.026	0.614 ± 0.012	0.438 ± 0.033	0.542 ± 0.0065	0.409 ± 0.027	0.417 ± 0.017	0.51 ± 0.024	0.426 ± 0.023
WHFPCPPLPCPV	–	–	0.4132 ± 0.0036	0.42896 ± 0.0003	0.325 ± 0.031	0.484 ± 0.0032	0.298 ± 0.0082	0.347 ± 0.035	0.4714 ± 0.0025	0.4846 ± 0.0013
WILLVLACFSSG	–	–	0.25 ± 0.0033	0.335 ± 0.051	0.272 ± 0.036	0.40822 ± 2.1e-05	0.215 ± 0.011	0.249 ± 0.034	0.361 ± 0.017	0.325 ± 0.0036
WLGCVLIGWHVL	–	–	0.355 ± 0.0098	0.413 ± 0.0055	0.288 ± 0.048	0.481 ± 0.01	0.169 ± 0.0054	0.19 ± 0.017	0.364 ± 0.052	0.27 ± 0.011
WLKLWSYVTHLG	–	–	0.66 ± 0.047	0.723 ± 0.0092	0.632 ± 0.025	0.717 ± 0.022	0.303 ± 0.0094	0.346 ± 0.021	0.581 ± 0.017	0.477 ± 0.036
WSLRFRRMMLRC	–	–	0.3765 ± 0.00088	0.425 ± 0.0072	0.429 ± 0.028	0.534 ± 0.0069	0.137 ± 0.0015	0.127 ± 0.026	0.16 ± 0.024	0.283 ± 0.015
WVVVARIFSVFF	–	–	0.484 ± 0.014	0.561 ± 0.02	0.445 ± 0.0061	0.57 ± 0.0013	0.308 ± 0.011	0.35 ± 0.018	0.469 ± 0.038	0.515 ± 0.12
